Source: patent publication US20070243583A1 (University of Texas, published 2007)

Assays:
[1] = molecular target: the molecule itself; test: gel filtration FPLC of the purified protein (self-association, homodimer)
RNase A = molecular target: T1, RNase A (UniProt P61823 27-150); test: cell-based or functional assay
T1 sequence (looked up): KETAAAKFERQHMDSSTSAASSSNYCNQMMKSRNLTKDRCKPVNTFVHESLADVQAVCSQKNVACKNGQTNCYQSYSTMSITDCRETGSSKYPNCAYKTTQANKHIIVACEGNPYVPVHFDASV

B1: DsbC (enzyme, Escherichia coli, UniProt P0AEG6 21-236, looked up)
chain: DDAAIQQTLAKMGIKSSDIQPAPVAGMKTVLTNSGVLYITDDGKHIIQGPMYDVSGTAPVNVTNKMLLKQLNALEKEMIVYKAPQEKHVITVFTDITCGYCHKLHEQMADYNALGITVRYLAFPRQGLDSDAEKEMKAIWCAKDKNKAFDDVMAGKSVAPASCDVDIADHYALGVQLGVSGTPAVVLSNGTLVPGYQPPKEMKEFLDEHQKMTSGK
notes: also called wild-type DsbC
binding result [1]: binds
RNAse Refolding (RNase A): 0.067 µM/min/µM Enzyme
Citrate Synthase Inactivation, CS t1/2 (citrate synthase): 3.15 min
Citrate Synthase Inactivation, µ (citrate synthase): 0.22 min - 1
Insulin Reduction (*10^3 DA650 nm/min^-2) (insulin): 5.81

B2: FkpA-DsbA2 (protein)
chain: AEAAKPATAADSKAAFKNDDQKSAYALGASLGRYMENSLKEQEKLGIKLDKDQLIAGVQDAFADKSKLSDQEIEQTLQAFEARVKSSAQAKMEKDAADNEAKGKEYREKFAKEKQYEDGKQYTTLEKPVAGAPQVLEFFSFFCPHCYQFEEVLHISDNVKKKLPEGVKMTKYHVNFMGGDLGKDLTQAWAVAMALGVEDKVTVPLFEGVQKTQTIRSASDIRDVFINAGIKGEEYDAAWNSFVVKSLVAQQEKAAADVQLRGVPAMFVNGKYQLNPQGMDTSNMDVFVQQYADTVKYLSEKKHHHHHH
Citrate Synthase Inactivation, CS t1/2 (citrate synthase): 2.46 min
Citrate Synthase Inactivation, µ (citrate synthase): 0.17 min - 1
Insulin Reduction (*10^3 DA650 nm/min^-2) (insulin): 0.45

B3: FkpA-DsbA3 (protein)
chain: AEAAKPATAADSKAAFKNDDQKSAYALGASLGRYMENSLKEQEKLGIKLDKDQLIAGVQDAFADKSKLSDQEIEQTLQAFEARVKSSAQAKMEKDAADNEAKGKEYREKFAKEKYEDGKQYTTLEKPVAGAPQVLEFFSFFCPHCYQFEEVLHISDNVKKKLPEGVKMTKYHVNFMGGDLGKDLTQAWAVAMALGVEDKVTVPLFEGVQKTQTIRSASDIRDVFINAGIKGEEYDAAWNSFVVKSLVAQQEKAAADVQLRGVPAMFVNGKYQLNPQGMDTSNMDVFVQQYADTVKYLSEKKHHHHHH
Citrate Synthase Inactivation, CS t1/2 (citrate synthase): 2.01 min
Citrate Synthase Inactivation, µ (citrate synthase): 0.36 min - 1
Insulin Reduction (*10^3 DA650 nm/min^-2) (insulin): 0.43

B4: FkpA-DsbA4 (protein)
chain: AEAAKPATAADSKAAFKNDDQKSAYALGASLGRYMENSLKEQEKLGIKLDKDQLIAGVQDAFADKSKLSDQEIEQTLQAFEARVKSSAQAKMEKDAADNEAKGKEYREKFAKEKEDGKQYTTLEKPVAGAPQVLEFFSFFCPHCYQFEEVLHISDNVKKKLPEGVKMTKYHVNFMGGDLGKDLTQAWAVAMALGVEDKVTVPLFEGVQKTQTIRSASDIRDVFINAGIKGEEYDAAWNSFVVKSLVAQQEKAAADVQLRGVPAMFVNGKYQLNPQGMDTSNMDVFVQQYADTVKYLSEKKHHHHHH
Citrate Synthase Inactivation, CS t1/2 (citrate synthase): 3.82 min
Citrate Synthase Inactivation, µ (citrate synthase): 0.45 min - 1
Insulin Reduction (*10^3 DA650 nm/min^-2) (insulin): 0.55

B5: FkpA-DsbA5 (protein)
chain: AEAAKPATAADSKAAFKNDDQKSAYALGASLGRYMENSLKEQEKLGIKLDKDQLIAGVQDAFADKSKLSDQEIEQTLQAFEARVKSSAQAKMEKDAADNEAKGKEYREKFAKEKDGKQYTTLEKPVAGAPQVLEFFSFFCPHCYQFEEVLHISDNVKKKLPEGVKMTKYHVNFMGGDLGKDLTQAWAVAMALGVEDKVTVPLFEGVQKTQTIRSASDIRDVFINAGIKGEEYDAAWNSFVVKSLVAQQEKAAADVQLRGVPAMFVNGKYQLNPQGMDTSNMDVFVQQYADTVKYLSEKKHHHHHH
Citrate Synthase Inactivation, CS t1/2 (citrate synthase): 2.71 min
Citrate Synthase Inactivation, µ (citrate synthase): 0.26 min - 1
Insulin Reduction (*10^3 DA650 nm/min^-2) (insulin): 0.38
